# From publication PMC3998870 (Nature, 2014)
# B1: VirB10/TrwE with a C-terminal StrepII tag (natural protein, Escherichia coli plasmid R388, UniProt O50337 1-395, looked up)
# chain: MFGRKKGDVIDAGAELERAEQERIEGEYGASELASERRPHTPGARTLLMVLLCVIAVVLVTLSYKAYKVRGVVEDDDAQPQQVVRQVIPGYTPRPIRPEPENVPEPPQPTTSVPAIQPAPVTQPVRPQPTGPREKTPYELARERMLRSGLTAGSGGGEDLPRPQGGDVPAGGLMGGGGGGGELAEKLQPMRLSGSSAGRLGNRDMLITQGTQLDCVLETRLVTTQPGMTTCHLTRDVYSTSGRVVLLDRGSKVVGFYQGGLRQGQARIFVQWSRIETPSGVVINLDSPGTGPLGEAGLGGWIDRHFWERFGGAIMISLIGDLGDWASRQGSRQGNNSIQFSNTANGVESAAAEALRNSINIPPTLYKNQGERVNILVARDLDFSDVYSLESIPTK
# Columns and labels:
# [1] = target: VirB4/TrwK (untagged, in the T4SS3-10 complex) (Escherichia coli plasmid R388) (UniProt O50330); test: negative stain EM reconstruction
# [2] = target: VirB10/TrwE with a C-terminal StrepII tag (Escherichia coli plasmid R388) (UniProt O50337); test: tandem affinity purification with 125I labelling of tyrosines and SDS-PAGE
# [3] = target: B1; test: as above
# [4] = target: the molecule itself; test: co-purification
# [5] = target: T1, VirB4/TrwK with a C-terminal StrepII tag (Escherichia coli plasmid R388, UniProt O50330 1-823); test: SEC
# T1 sequence (looked up): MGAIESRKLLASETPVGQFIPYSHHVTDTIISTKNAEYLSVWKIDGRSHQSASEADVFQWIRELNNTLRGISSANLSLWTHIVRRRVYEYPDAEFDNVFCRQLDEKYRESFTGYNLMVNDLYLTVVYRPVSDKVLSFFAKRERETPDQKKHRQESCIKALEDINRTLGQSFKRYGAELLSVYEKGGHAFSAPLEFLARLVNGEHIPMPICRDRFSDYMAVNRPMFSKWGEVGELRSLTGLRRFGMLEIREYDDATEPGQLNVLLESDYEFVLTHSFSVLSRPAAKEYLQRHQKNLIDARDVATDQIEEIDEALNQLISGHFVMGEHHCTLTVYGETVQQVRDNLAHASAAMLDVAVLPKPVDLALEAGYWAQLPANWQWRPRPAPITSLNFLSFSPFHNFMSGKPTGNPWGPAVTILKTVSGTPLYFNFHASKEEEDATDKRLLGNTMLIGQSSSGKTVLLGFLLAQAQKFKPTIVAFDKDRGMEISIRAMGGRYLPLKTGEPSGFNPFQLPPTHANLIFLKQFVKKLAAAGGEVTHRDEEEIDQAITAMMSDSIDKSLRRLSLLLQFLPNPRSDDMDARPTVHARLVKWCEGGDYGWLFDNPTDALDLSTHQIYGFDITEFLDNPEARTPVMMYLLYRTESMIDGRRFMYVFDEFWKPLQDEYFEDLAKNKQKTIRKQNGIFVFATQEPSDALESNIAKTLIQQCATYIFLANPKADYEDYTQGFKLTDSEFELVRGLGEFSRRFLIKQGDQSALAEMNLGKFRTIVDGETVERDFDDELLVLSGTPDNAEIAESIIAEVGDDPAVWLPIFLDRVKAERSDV
molecule,measurement,setting,value
"VirB4/TrwK (untagged, in the T4SS3-10 complex) (from UniProt O50330 1-823) (enzyme)",stoichiometry N,[1],6
VirB6/TrwI with an N-terminal His6 tag (natural protein),"copies in the complex, calibrated on 14 copies of VirB10/TrwE",[2],23.8 copies
"VirB5/TrwJ (natural protein, Escherichia coli plasmid R388, UniProt O50331 23-226, looked up) QGIPVFDGTRALDFVQQFARMKEQLDTAKDQLAEAQRMYEAVTGGRGLGDLMRNAQLREYLPDDLRTVYDSANGGGYSGISGSINDILRDERLNGSVADMRRSIEERSRTARTTDKAVGCGPTKGHSNASRRLKDEISRTQDQKAIEELQARIAGEQAAIQNETTKLQMIAQLRQAEQALISEQRRERNMPILSSGNQGMPTIQ","copies in the complex, calibrated on 14 copies of VirB10/TrwE",[3],11.9 copies
B1,stoichiometry N,[4],14
"VirB8/TrwG (natural protein, Escherichia coli plasmid R388, UniProt O50335 1-231, looked up) MSKKQPKPVKAEQLKSYYEESRGLERDLIGEFVKSRKTAWRVATASGLFGLLGMVCGIVGFSQPAPAPLVLRVDNATGAVDVVTTLREHESSYGEVVDTYWLNQYVLNREAYDYNTIQMNYDTTALLSAPAVQQDYYKLFDGSNARDRVLGNKARITVRVRSIQPNGRGQATVRFTTQQHNSNGTVERPQHQIATIGYTYIGAPMRSSDRLLNPLGFQVTSYRADPEILNN","copies in the complex, calibrated on 14 copies of VirB10/TrwE",[3],12.6 copies
"VirB4/TrwK (untagged, in the T4SS3-10 complex) (enzyme, Escherichia coli plasmid R388, UniProt O50330 1-823, looked up) MGAIESRKLLASETPVGQFIPYSHHVTDTIISTKNAEYLSVWKIDGRSHQSASEADVFQWIRELNNTLRGISSANLSLWTHIVRRRVYEYPDAEFDNVFCRQLDEKYRESFTGYNLMVNDLYLTVVYRPVSDKVLSFFAKRERETPDQKKHRQESCIKALEDINRTLGQSFKRYGAELLSVYEKGGHAFSAPLEFLARLVNGEHIPMPICRDRFSDYMAVNRPMFSKWGEVGELRSLTGLRRFGMLEIREYDDATEPGQLNVLLESDYEFVLTHSFSVLSRPAAKEYLQRHQKNLIDARDVATDQIEEIDEALNQLISGHFVMGEHHCTLTVYGETVQQVRDNLAHASAAMLDVAVLPKPVDLALEAGYWAQLPANWQWRPRPAPITSLNFLSFSPFHNFMSGKPTGNPWGPAVTILKTVSGTPLYFNFHASKEEEDATDKRLLGNTMLIGQSSSGKTVLLGFLLAQAQKFKPTIVAFDKDRGMEISIRAMGGRYLPLKTGEPSGFNPFQLPPTHANLIFLKQFVKKLAAAGGEVTHRDEEEIDQAITAMMSDSIDKSLRRLSLLLQFLPNPRSDDMDARPTVHARLVKWCEGGDYGWLFDNPTDALDLSTHQIYGFDITEFLDNPEARTPVMMYLLYRTESMIDGRRFMYVFDEFWKPLQDEYFEDLAKNKQKTIRKQNGIFVFATQEPSDALESNIAKTLIQQCATYIFLANPKADYEDYTQGFKLTDSEFELVRGLGEFSRRFLIKQGDQSALAEMNLGKFRTIVDGETVERDFDDELLVLSGTPDNAEIAESIIAEVGDDPAVWLPIFLDRVKAERSDV","copies in the complex, calibrated on 14 copies of VirB10/TrwE",[3],11.5 copies
"VirB3/TrwM (natural protein, Escherichia coli plasmid R388, UniProt O50329 1-104, looked up) MKPPQQQHEAFPLFKGATRLPTILGEPMIPLMAMVMGVAVIALTVSIWWWALVPPLWFIMAQITKNDDKAFRIWWLWIDTKFRNRNKGFWGASSYSPANYRKRR",stoichiometry N,[5],1
